B1: MmMOAP1 (natural protein, mouse, UniProt Q9ERH6 1-352, looked up)
chain: MTLRLLEDWCRGMDMNPRKALLVAGIPPTCGVADIEEALQAGLAPLGEHRLLGRMFRRDENKNVALIGLTVETGSALVPKEIPAKGGVWRVIFKPPDTDSDFLCRLNEFLKGEGMTMGELTRVLGNRNDPLGLDPGIMIPEIRAPMLAQALNEALKPTLQYLRYKKLSVFSGRDPPGPGEEEFESWMFHTSQVMKTWQVSDVEKRRRLIESLRGPAFEIIRVLKINNPFITVAECLKTLETIFGIIDNPRALQVKYLTTYQKTDEKLSAYVLRLEPLLQKLVQKGAIEKEVVNQARLDQVIAGAVHKSVRRELGLPEGSPAPGLLQLLTLIKDKEAEEEEVLLQAELEGYCT
B2: MmPNMA3 (natural protein, mouse, UniProt Q8JZW8 1-466, looked up)
chain: MPLNLLQDWCRGEHLNTQRSMLILGIPEDCSEDEFEETLHEALKHLGRYRIIGRMFRREENAQAFLVELARDFDYALVPREIEGKGGPWEVVVKPPHSDDEFLNRLNHFLEEERRTVSDMNRVLGTHSNHSPTKTTISADFWVWAQTLGAVMQPLLEQMLYRELRVFSGNTISIPGLLAFDSWLEHTTEMLQMWQVPEVEKRRRLMECLRGPALQVVNVLRANNAAITVKECLEALRQVFGSVDNRKIAQLKFCKAYQEPGEKVSSFVVRLETLLQKALEKNAISRKNVNQTRLKRILGGAILSAKLREKLKMLKQRRRPPGFLALVKLFREEEEEWEATRGSERSCYEGLELGPSPSNIGSEERELFVPAFGSVLEERPYQGSRRRRHRRRGQHRKGGVPRDDSQGTRKQNYDTFCYSCGEDGHIRVHCFNPSNRTLVKQKRQAAMEKGNRSWAWEKSHPKPKTK
B3: MmPNMA5 (natural protein, mouse, UniProt Q5DTT8 1-618, looked up)
chain: MAVALLDDWCKGMDLDPKKAVLIVGIPVQYTEAAINDALKEGLPPLCAYKVIGRMFRREDEAKAVLIELPEVVDYTMMPTHIPAEGGAWEVVVKPRSPDDEFMNKLIYFLRDEGRRIVDVAKALGFSTVPTGKIELKNLDQDKPKGLKSLCNNSTCYKKLKVFSGSPFPGPGEESFETWLEEVTELMQLWQVSEREKKQCLLESLRGSALSIMQALWTSNDSLTVEQCLKALKHIFGNKEDSKVLQFRFLQSSQKPAEKVSDYLLRLEPLLQKAVQQSPLSAHSADSIRLKHVLSQVSMTTGLRGKLSLLDQQGCPPTFLELMKLTRDEEEWESTVVVEEQEQVRRDSSACEAANEVVTQAEDSREVSTQTTGEEMTSVKRRRLLWRHSAGEEGQRKESGFWAESEPDEQKPYVRAQESGNERGAWAVSHPNPKEIEAQDSQEFLPVAGNRDTLTKSWGSPDKGTGDMSVAEGQQGQGKAPNFLLARNDPNKQEQIPHSSVTTKWQDRGECQRLKWGASMITRPQGNPDRSWDTSGSQDGEDGCSELRMPTGTEAAQGVEEPATGLSWAEDTSAWEQARLGRETVPRRGGRRIQPVFRIIYTALGEPHEGSTLESFRE

Target: the molecule itself
Experiment: SEC + other: electron microscopy
B1: binds.
B2: binds.
B3: binds.

From publication PMC8431961 (Science (New York, N.Y.), 2021)
